# In patent US9744220B2, “Compositions and methods for treating inflammatory diseases” (priority 2013, dated 2017):
# B1: sPDNF: N-terminal short-form of T cruzi PDNF that contains Trk-binding sites, recombinant; amino acids 1-588 of SEQ ID NO: 2; JR-100 is the commercial name (protein, listed as Trypanosoma cruzi)
# chain: MGKTVVVASRMFWLMFFVPLLLAICPSEPAYALAPGSSRVELFKRKNSTVPFEDKAGKVTERVVHSFRLPALVNVDGVMVAIADARYDTSNDNSLIDTVAKYSVDDGETWETQIAIKNSRVSSVSRVVDPTVIVKGNKLYVLVGSYYSSRSYWSSHGDARDWDILLAVGEVTKSTAGGKITASIKWGSPVSLKKFFPAEMEGMHTNQFLGGAGVAIVASNGNLVYPVQVTNKKKQVFSKIFYSEDDGKTWKFGKGRSDFGCSEPVALEWEGKLIINTRVDWKRRLVYESSDMEKPWVEAVGTVSRVWGPSPKSNQPGSQSSFTAVTIEGMRVMLFTHPLNFKGRWLRDRLNLWLTDNQRIYNVGQVSIGDENSAYSSVLYKDDKLYCLHEINTDEVYSLVFARLVGELRIIKSVLRSWKNWDSHLSSICTPADPAASSSESGCGPAVTTVGLVGFLSGNASQNVWEDAYRCVNASTANAERVRNGLKFAGVGGGALWPVSQQGQNQRYRFANHAFTLVASVTIHEAPRAASPLLGASLDSSGGKKLLGLSYDEKHQWQPIYGSTPVTPTGSWETGKRYHLVLTMANKI
# Key:
# [1] = system: heart of mice with chronic Chagas cardiomyopathy (CCC); assay: Chronic Chagas cardiomyopathy (CCC) mice, heart histology (H&E, Masson-Trichrome); type: in vivo; conditions: for cardiac fibrosis: IV, Masson-Trichrome
# Protocol: FIG. 3A depicts in vivo experimental design, groups, treatment and timeline for the infective and anti-inflammatory effects of sPDNF. C57BL/6 mice (7 per group) were injected intraperitoneally with T cruzi Colombian strain (8×10^2 per mouse) and, four months later, intravenously with PBS (vehicle) or sPDNF (1 mg/kg body weight) at 0, 3, and 24 hours, weekly for 3 weeks. Mice were sacrificed 50 days after the first set of IV sPDNF treatment. FIG. 3B are images of heart (ventricle) paraffin-embedded, sectioned, and stained with H&E. Arrows indicate foci of inflammatory infiltrates, which were abundant in sham-treated (IV PBS) CCC mice and rare in IV sPDNF-treated CCC mice. Similar histology was found in other tissue sections and in a distinct set of sPDNF-treated and PBS-sham mice.
# Same mice and experimental protocol as described in FIG. 3A were used except that paraffin-embedded heart sections were stained with Masson-Trichrome to visualize collagen in fibrotic areas (blue) and viable muscle fibers (red). FIGS. 4A and 4B display sections of atria of mice with CCC administered IV PBS or IV sPDNF, respectively. FIG. 4C is a graph showing the amount of cardiac fibrosis, as determined using ImageJ software (NIH) in four distinct sections of atria and ventricles. Relative cardiac fibrosis is defined as the ratio of blue pixels to total pixels (blue+red) normalized to corresponding areas of the heart of uninfected mice set at 1.0 (dotted line); **, P<0.01, ns, not significant relative uninfected hearts.
# [2] = Toxicity in RAG-2-/- deficient mice; type: in vivo; conditions: highly susceptible to endotoxin shock
# Limulus amebocyte assay = conditions: sPDNF preparations
# Protocol: To ensure that the response observed in wild type mice was not due to TLR activation, MCP-1 and FKN response to IV sPDNF was assessed in TLR-deficient MyD88^−/− mice (23).
# PDNF was cloned from the T cruzi Silvio X-10/4 strain (GenBank accession number AJ002174). PDNF and a N-terminal short-form of PDNF (sPDNF) that contains Trk-binding sites, were expressed in BL21 (DE3) bacteria, and purified by Ni-affinity chromatography, as described previously (4, 12, 18, 60). Buffers were prepared in sterile endotoxin-free water, and sPDNF preparations screened with the Limulus amebocyte assay have undetectable levels of endotoxin. sPDNF migrates as a 68 kDa protein on a SDS-PAGE gel. PDNF protein was buffer exchanged into PBS (0.01 M phosphate buffered saline, pH 7.2), filter-sterilized (0.22 μm), and kept at 4° C. PDNF was quantified by scanning densitometry (Bio-Rad, GS-800) of SDS-PAGE gels stained with Coomassie brilliant blue.
# [3] = system: MCP-1 and FKN receptors CCR2 and CX3CR1; assay: IV sPDNF into naïve mice, chemokine receptor transcripts by qPCR; type: in vivo
# Protocol: For the results depicted in FIGS. 12A and 12B, mice (3/group) were injected with various single doses of IV sPDNF, and sacrificed 3 hr post-injection. FIG. 12A is a graph showing the mRNA expression of MCP-1 receptor CCR2, as quantified by qPCR in the heart and liver. FIG. 12B is a graph showing the mRNA expression of FKN receptor CX3CR1, as quantified by qPCR in the heart and liver. […] For the results depicted in FIGS. 12C and 12D, mice (3/group) were injected with vehicle (Veh) or multiple doses of IV sPDNF (25 μg per injection) at 0, 3 and 24 hr, and sacrificed 24 hr after the last injection. FIG. 12C is a graph showing mRNA expression of CCR2, as quantified by qPCR in the liver, colon and heart (ventricles and atria). FIG. 12D is a graph showing mRNA expression of CX3CR1, as quantified by qPCR in the liver, colon and heart (ventricles and atria). Notice a statistically significant upregulation of MCP-1 and FKN receptors in the heart and liver 48-h after the start of three doses of IV sPDNF spaced within a 24 h span; *P<0.05, and ** P<0.01
# One of the functions of MCP-1 and FKN is to attract cells expressing their receptors (CCR2 and CX3CR1, respectively) to tissue sites. […] Thus, sPDNF-induced MCP-1 and FKN promoted migration of cells bearing CCR2 and CX3CR1 receptors.
# RNA was isolated from Trizol lysates of cell monolayers or liquid nitrogen snap frozen tissue samples dissociated by a Tissue-Tearor mechanical homogenizer (Biospec Products, Inc.). cDNA was synthesized using the Quantitect Reverse Transcription kit (Qiagen) according to manufacturer's instructions. Chemokine and chemokine receptor transcripts were amplified using specific primers and normalized to HPRT using SYBR Green (Qiagen), and, if needed, expressed relative to control-unstimulated cells. The following primers were used: […]
# sPDNF was diluted in sterile endotoxin-free PBS (200 μl) and injected via the tail vein into 6-8 week old female C57BL/6 mice. Mice receiving single IV injections of 150 μg sPDNF per mouse were sacrificed at 3, 6, 9, and 12 hr post-injection, or various doses of sPDNF (100 ng-150 μg) and sacrificed 3 hr post-injection. Mice receiving multiple injections of sPDNF or PBS vehicle control (0, 3, and 24 hr, 100 μg per injection) were sacrificed 24 hr after the last injection (i.e., 48 hr after the first injection). Mice were perfused with PBS and organs harvested as described above.
# cardiac Sca-1+ cells = assay: Intravenous sPDNF into naïve mice, Sca-1 staining of heart sections; type: in vivo
# [4] = IV at 0, 3 and 24 hr, measured 24 hr after the last injection
molecule,measurement,setting,value
B1,inflammatory infiltrates in the heart,"[1]; IV 1 mg/kg at 0, 3, 24 hours weekly for 3 weeks, 1 mg/kg",dramatic reduction and rare
same,cardiac fibrosis,[1],reduced
same,cardiac fibrosis,[1]; listed as PDNF fragment,nearly eliminated
same,toxicity,[2],non-toxic
same,levels of endotoxin,Limulus amebocyte assay,did not have detectable levels
same,CCR2 in the liver and heart (ventricle and atrium),[3]; [4],significant increase
same,CX3CR1 in the liver and heart (ventricle and atrium),[3]; [4],significant increase
same,CCR2 transcripts in cardiac and hepatic tissues,[3]; single IV dose (150 μg),did not increase
same,CX3CR1 transcripts in cardiac and hepatic tissues,[3]; single IV dose (150 μg),did not increase
same,cardiac Sca-1+ cells,cardiac Sca-1+ cells,expanded
